Experimental data: patent US12678474B2, “Screening of fixed-point coupling sites of cysteine-modified antibody-toxin conjugate (TDC)” (SICHUAN BAILI PHARMACEUTICAL CO. LTD., priority 2017, dated 2026)

Experiments:
[1] = target: T1, Recombinant EGFRVIII-His*6 antigen (Homo sapiens, UniProt P00533, DELINS30-297G); test: ELISA relative affinity for EGFRvIII; assay type: binding; settings: for EC50: EGFRvIII-coated plates, A450, read-out: EC50 (nM), mutant antibody affinity
T1 construct: His*6
Text: Insertion Mutation Modification and Parent Antibody 2A1 for EGFRvIII • ELISA was used to compare the relative affinities of 2A1-LC-Cys110ins-mc-vc-PAB-MMAE TDC, 2A1-LC-Cys111ins-mc-vc-PAB-MMAE TDC, 2A1-LC-Cys142ins-mc-vc-PAB-MMAE TDC, 2A1-HC-Cys254ins-mc-vc-PAB-MMAE TDC, 2A1-HC-Cys255ins-mc-vc-PAB-MMAE TDC, 2A1-HC-Cys258ins-mc-vc-PAB-MMAE TDC, 2A1-HC-Cys259ins-mc-vc-PAB-MMAE TDC, 2A1-HC-Cys354ins-mc-vc-PAB-MMAE TDC, 2A1-HC-Cys355ins-mc-vc-PAB-MMAE TDC, 2A1-HC-Cys357ins-mc-vc-PAB-MMAE TDC, 2A1-HC-Cys378ins-mc-vc-PAB-MMAE TDC, 2A1-HC-Cys379ins-mc-vc-PAB-MMAE TDC, 2A1-HC-Cys386ins-mc-vc-PAB-MMAE TDC, 2A1-HC-Cys387ins-mc-vc-PAB-MMAE TDC, 2A1-HC-Cys410ins-mc-vc-PAB-MMAE TDC, and 2A1 for EGFRvIII. The specific process used was as follows:
Recombinant […]-His*6 antigen was used to coat plates; fish skin gelatin was used as a seal; dilution of each insertion mutant antibody was performed separately, up to a maximum concentration 10 μg/ml and a 4-fold gradient dilution was performed for a total of 11 concentrations; HRP-labeled secondary antibodies were used for incubation; TMB was used for development and absorption detection was performed at 450 nm.

[2] = system: EGFRwt-overexpressing human skin squamous cell carcinoma cell line A431; test: MTS cytotoxicity (cell viability) assay, A431; assay type: cell-based; settings: antibodies; 72 hours
Protocol: (§1) TDC cytotoxic activity was determined via the following experimental procedure: TDC was added to EGFR-overexpressing or […]-expressing human tumor cell culture medium, and cell viability was determined after 72 hours of cell culture. Cell-based in vitro experiments were used to determine cell viability, cytotoxicity and programmed cell death induced by TDC constituted by the present invention.
(§2) In vitro efficacy of antibody-toxin conjugates was determined via a cell proliferation assay. A CellTiter ^96® AqueousOne Solution Cell was Proliferation Assay purchased commercially from Promega Corp. (Madison, WI). CellTiter ^96® Aqueous One Solution Cell Proliferation Assay (a) is a colorimetric method used to detect the number of living cells in cell proliferation and cytotoxicity experiments. The above reagent contains the novel tetrazole compound [3-(4,5-dimethylthiazol-2-yl)-5-(3-carboxymethoxyphenyl)-2-(4-sulfophenyl)-2H-tetrazolium, inner salt; MTS) as well as an electronic coupling agent (phenazine ethosulfate; PES). […] This convenient “single solution” model is an improvement on the first generation of the CellTiter ^96® Aqueous Assay, in which the electronic coupling agent PMS was supplied separately from the MTS solution. MTS (Owen's reagent) is reduced by cellular organisms into a colored formazan product, which can be directly dissolved in culture medium (FIG. 1). This conversion is likely facilitated by NADPH NADH produced by dehydrogenase present in metabolically active cells. For the assay, a small amount of CellTiter ^96® Aqueous One Solution Reagent is added directly to the medium present in the wells of the culture plate, after which incubation is performed for 1 to 4 hours, followed by reading of the absorbance value at 490 nm using a microplate reader.
(§3) The amount of formazan product detected at 490 nm is proportional to the number of viable cells in culture. Because the formazan product of MTS is soluble in tissue culture medium, CellTiter ^96® Aqueous One Solution Assay requires fewer steps than the MTT or INT methods. A431 (EGFR-overexpressing cells) and U87-[…] (an […] mutant stable cell line) were used in the present invention as an investigative system for performing in vitro efficacy assays. In 96-well plates, cells were plated at 6000 cells/well and 24 hours later, antibody spiking was carried out. […] Cell viability was assayed via MTS 72 hours after treatment.

[3] = system: EFGRvIII-overexpressing human glioma cell line U87-EGFRvIII; test: MTS cytotoxicity (cell viability) assay, U87-EGFRvIII; assay type: cell-based; settings: antibodies; 72 hours; read-out: IC50, U87MG-EGFRvIII (MTS)
Protocol: as §1, §2, §3

B1: 2A1-HC-Cys379ins: 2A1 antibody with cysteine inserted at heavy chain position 379 (SEQ ID NO: 38) (antibody)
heavy: DVQLQESGPSLVKPSQSLSLTCTVTGYSITSDFAWNWIRQFPGNKLEWMGYISYSGNTRYNPSLKSRISITRDTSKNQFFLQLNSVTIEDTATYYCVTAGRGFPYWGQGTLVTVSAASTKGPSVFPLAPSSKSTSGGTAALGCLVKDYFPEPVTVSWNSGALTSGVHTFPAVLQSSGLYSLSSVVTVPSSSLGTQTYICNVNHKPSNTKVDKRVEPKSCDKTHTCPPCPAPEFLGGPSVFLFPPKPKDTLMISRTPEVTCVVVDVSHEDPEVKFNWYVDGVEVHNAKTKPREEQYNSTYRVVSVLTVLHQDWLNGKEYKCKVSNKALPAPIEKTISKAKGQPREPQVYTLPPSRDELTKNQVSLTCLVKGFYPSDIAVEWECSNGQPENNYKTTPPVLDSDGSFFLYSKLTVDKSRWQQGNVFSCSVMHEALHNHYTQKSLSLSPG
light: DILMTQSPSSMSVSLGDTVSITCHSSQDINSNIGWLQQRPGKSFKGLIYHGTNLDDEVPSRFSGSGSGADYSLTISSLESEDFADYYCVQYAQFPWTFGGGTKLEIKRTVAAPSVFIFPPSDEQLKSGTASVVCLLNNFYPREAKVQWKVDNALQSGNSQESVTEQDSKDSTYSLSSTLTLSKADYEKHKVYACEVTHQGLSSPVTKSFNRGEC
In the case of B1, the “Affinity for EGFRvIII relative to 2A1 (in words)” value [1] is reported as “maintained 2A1 affinity”, the EC50 [1] is reported as 0.0409 nM and the IC50 [2] is reported as greater than 10 µM. The IC50 [3] was greater than 10 µM.

B2: 2A1-HC-Cys258ins: 2A1 antibody with cysteine inserted at heavy chain position 258 (SEQ ID NO: 26) (antibody)
heavy: DVQLQESGPSLVKPSQSLSLTCTVTGYSITSDFAWNWIRQFPGNKLEWMGYISYSGNTRYNPSLKSRISITRDTSKNQFFLQLNSVTIEDTATYYCVTAGRGFPYWGQGTLVTVSAASTKGPSVFPLAPSSKSTSGGTAALGCLVKDYFPEPVTVSWNSGALTSGVHTFPAVLQSSGLYSLSSVVTVPSSSLGTQTYICNVNHKPSNTKVDKRVEPKSCDKTHTCPPCPAPEFLGGPSVFLFPPKPKDTLMISRTPEVTCCVVVDVSHEDPEVKFNWYVDGVEVHNAKTKPREEQYNSTYRVVSVLTVLHQDWLNGKEYKCKVSNKALPAPIEKTISKAKGQPREPQVYTLPPSRDELTKNQVSLTCLVKGFYPSDIAVEWESNGQPENNYKTTPPVLDSDGSFFLYSKLTVDKSRWQQGNVFSCSVMHEALHNHYTQKSLSLSPG
light: DILMTQSPSSMSVSLGDTVSITCHSSQDINSNIGWLQQRPGKSFKGLIYHGTNLDDEVPSRFSGSGSGADYSLTISSLESEDFADYYCVQYAQFPWTFGGGTKLEIKRTVAAPSVFIFPPSDEQLKSGTASVVCLLNNFYPREAKVQWKVDNALQSGNSQESVTEQDSKDSTYSLSSTLTLSKADYEKHKVYACEVTHQGLSSPVTKSFNRGEC
B2 was tested, and the “Affinity for EGFRvIII relative to 2A1 (in words)” value [1] was “maintained 2A1 affinity”, the EC50 [1] was 0.0423 nM and the IC50 [2] was greater than 10 µM. It also gave an IC50 [3] greater than 10 µM.

B3: 2A1-HC-Cys255ins: 2A1 antibody with cysteine inserted at heavy chain position 255 (SEQ ID NO: 24) (antibody)
heavy: DVQLQESGPSLVKPSQSLSLTCTVTGYSITSDFAWNWIRQFPGNKLEWMGYISYSGNTRYNPSLKSRISITRDTSKNQFFLQLNSVTIEDTATYYCVTAGRGFPYWGQGTLVTVSAASTKGPSVFPLAPSSKSTSGGTAALGCLVKDYFPEPVTVSWNSGALTSGVHTFPAVLQSSGLYSLSSVVTVPSSSLGTQTYICNVNHKPSNTKVDKRVEPKSCDKTHTCPPCPAPEFLGGPSVFLFPPKPKDTLMISRTPECVTCVVVDVSHEDPEVKFNWYVDGVEVHNAKTKPREEQYNSTYRVVSVLTVLHQDWLNGKEYKCKVSNKALPAPIEKTISKAKGQPREPQVYTLPPSRDELTKNQVSLTCLVKGFYPSDIAVEWESNGQPENNYKTTPPVLDSDGSFFLYSKLTVDKSRWQQGNVFSCSVMHEALHNHYTQKSLSLSPG
light: DILMTQSPSSMSVSLGDTVSITCHSSQDINSNIGWLQQRPGKSFKGLIYHGTNLDDEVPSRFSGSGSGADYSLTISSLESEDFADYYCVQYAQFPWTFGGGTKLEIKRTVAAPSVFIFPPSDEQLKSGTASVVCLLNNFYPREAKVQWKVDNALQSGNSQESVTEQDSKDSTYSLSSTLTLSKADYEKHKVYACEVTHQGLSSPVTKSFNRGEC
For B3, the “Affinity for EGFRvIII relative to 2A1 (in words)” value [1] was “maintained 2A1 affinity”, the EC50 [1] was 0.039 nM and the IC50 [2] was greater than 10 µM. For the same molecule, the IC50 [3] was greater than 10 µM.

B4: 2A1-HC-Cys386ins: 2A1 antibody with cysteine inserted at heavy chain position 386 (SEQ ID NO: 40) (antibody)
heavy: DVQLQESGPSLVKPSQSLSLTCTVTGYSITSDFAWNWIRQFPGNKLEWMGYISYSGNTRYNPSLKSRISITRDTSKNQFFLQLNSVTIEDTATYYCVTAGRGFPYWGQGTLVTVSAASTKGPSVFPLAPSSKSTSGGTAALGCLVKDYFPEPVTVSWNSGALTSGVHTFPAVLQSSGLYSLSSVVTVPSSSLGTQTYICNVNHKPSNTKVDKRVEPKSCDKTHTCPPCPAPEFLGGPSVFLFPPKPKDTLMISRTPEVTCVVVDVSHEDPEVKFNWYVDGVEVHNAKTKPREEQYNSTYRVVSVLTVLHQDWLNGKEYKCKVSNKALPAPIEKTISKAKGQPREPQVYTLPPSRDELTKNQVSLTCLVKGFYPSDIAVEWESNGQPENCNYKTTPPVLDSDGSFFLYSKLTVDKSRWQQGNVFSCSVMHEALHNHYTQKSLSLSPG
light: DILMTQSPSSMSVSLGDTVSITCHSSQDINSNIGWLQQRPGKSFKGLIYHGTNLDDEVPSRFSGSGSGADYSLTISSLESEDFADYYCVQYAQFPWTFGGGTKLEIKRTVAAPSVFIFPPSDEQLKSGTASVVCLLNNFYPREAKVQWKVDNALQSGNSQESVTEQDSKDSTYSLSSTLTLSKADYEKHKVYACEVTHQGLSSPVTKSFNRGEC
B4 was tested, and the “Affinity for EGFRvIII relative to 2A1 (in words)” value [1] was “maintained 2A1 affinity”, the EC50 [1] was 0.0435 nM and the IC50 [2] was greater than 10 µM. For the same molecule, the IC50 [3] was greater than 10 µM.

B5: 2A1-HC-Cys254ins: 2A1 antibody with cysteine inserted at heavy chain position 254 (SEQ ID NO: 22) (antibody)
heavy: DVQLQESGPSLVKPSQSLSLTCTVTGYSITSDFAWNWIRQFPGNKLEWMGYISYSGNTRYNPSLKSRISITRDTSKNQFFLQLNSVTIEDTATYYCVTAGRGFPYWGQGTLVTVSAASTKGPSVFPLAPSSKSTSGGTAALGCLVKDYFPEPVTVSWNSGALTSGVHTFPAVLQSSGLYSLSSVVTVPSSSLGTQTYICNVNHKPSNTKVDKRVEPKSCDKTHTCPPCPAPEFLGGPSVFLFPPKPKDTLMISRTPCEVTCVVVDVSHEDPEVKFNWYVDGVEVHNAKTKPREEQYNSTYRVVSVLTVLHQDWLNGKEYKCKVSNKALPAPIEKTISKAKGQPREPQVYTLPPSRDELTKNQVSLTCLVKGFYPSDIAVEWESNGQPENNYKTTPPVLDSDGSFFLYSKLTVDKSRWQQGNVFSCSVMHEALHNHYTQKSLSLSPG
light: DILMTQSPSSMSVSLGDTVSITCHSSQDINSNIGWLQQRPGKSFKGLIYHGTNLDDEVPSRFSGSGSGADYSLTISSLESEDFADYYCVQYAQFPWTFGGGTKLEIKRTVAAPSVFIFPPSDEQLKSGTASVVCLLNNFYPREAKVQWKVDNALQSGNSQESVTEQDSKDSTYSLSSTLTLSKADYEKHKVYACEVTHQGLSSPVTKSFNRGEC
B5 was tested, and the “Affinity for EGFRvIII relative to 2A1 (in words)” value [1] was “maintained 2A1 affinity”, the EC50 [1] was 0.0456 nM and the IC50 [2] was greater than 10 µM. For the same molecule, the IC50 [3] was greater than 10 µM.
